Data on one molecule can be found in patent publication US20210025886A1 (Alexion, published 2021).

The assay deals with T1, complement fragment C3a (Complement Technologies cat # A118) (human, UniProt P01024 672-748).
T1 construct: domain: C3a; also called purified C3a
Nature of the assay: TR-FRET sandwich, purified C3a titrated from 66.6 nM, antibodies 50 nM each. The method, then:
Labeled antibodies were then used to detect C3a in a sample that also contained intact C3 and C3b fragments. […] For the detection assay, complement C3 and fragments C3a and C3b were purchased from Complement Technologies (cat # A113c, A118, and A114, respectively). They were aliquoted and stored at −80° C. Each complement protein was titrated individually or as a mixture in assay buffer (10 mM HEPES pH 7.4, 0.1% BSA) at final concentrations of 66.6 nM serially diluted. Detection antibodies were combined in assay buffer to make a C3a detection mixture at final concentrations of 50 nM each in assay. Then, 15 μl of the appropriate C3 reagent was added to the appropriate wells of a white 384 well Optiplate (Perkin Elmer Cat. #600-7290). To each well, 15 μl antibody detection mix was then added. The plate was spun at 4000 RPM for 20 seconds and read on a Paradigm Spectramax instrument using the Cisbio htrf cartridge (excite at 340 nm and emit at 615 nm and 665 nm). The plate was read periodically and the signal calculated by dividing the 665 signal by the 615 signal and multiplying by 10000.
A general note: TR-FRET usually uses a lanthanide donor and a delayed reading to cut background.

T1 sequence (P01024 672-748 limits assumed): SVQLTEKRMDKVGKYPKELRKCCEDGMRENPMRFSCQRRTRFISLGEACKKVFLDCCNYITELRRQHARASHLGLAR

B1: C3a antibody YHP133 (antibody, human IgG1, kappa, V domains shown)
VH: EVQLQQSGAELVRPGASVKLSCTASGFNIKDSLIHWVKQRPEQGLEWIGWIDPDDGETKYAPKFQDKATITADTSSNTAYLQFSSLTSEDTAIYYCAGRSGEGYFDYWGQGTTVTVSS
VL: DIVMTQSPATLSVTPGDRVSLSCRASQSISDYLHWYQQKSHESPRLLIKYASQSISGIPSRFSGSGSGSDFTLSINSVEPEDVGVYYCQNGHSFPLTFGAGTKVEIKR
modifications: labeled with d2 dye (Cisbio d2 labeling kit); site not stated
notes: Synthesized and purified according to standard procedures; used d2-labeled in the FRET assays; also called the other C3a antibody; acceptor antibody
With B1, the binding result is “binds”.
